Test results from patent US20230313217A1, “CHLOROPLAST TARGETING PEPTIDES AND CONJUGATES AND COMPOSITIONS THEREOF” (The Regents of the University of California, priority 2021, published 2023).
Ends that are not written are not given here.

Experiment: ζ potential of carbon nanostructures (Zetasizer)
Assay type: physicochemical
Method: The resulting PEI-SWCNT suspension was characterized by measuring the absorbance spectra on a UV-vis absorbance spectrophotometer (UV-2600, Shimadzu). The quality of the SWCNT suspension was determined by analyzing absorbance peaks at 632 nm. This measurement was performed with triplicates. The concentration of the PEI-SWCNT was determined spectrophotometrically using the absorption value at 632 nm and utilizing the equation (absorbance at 632 nm/extinction coefficient of 0.036)=mg L^−1. The final concentration obtained after purification ranged from 18 to 30 mg/L. The nanoparticle ζ potential was measured using a Zetasizer (Nano ZS, Malvern Instruments) in samples suspended in 10 mM TES buffer pH 7.0, with 0.1 mM NaCl. The hydrodynamic size was measured using Zetasizer (Nano ZS, Malvern Instruments) in samples suspended in a 10 mM TES buffer at pH 7.
Characterization of Nanomaterials. All nanomaterials were characterized by absorbance UV-vis spectroscopy (UV-2600 Shimadzu), hydrodynamic size (Nano S), and ζ potential (Nano ZS). The nanomaterial ζ potential and hydrodynamic diameter were measured in a 10 mM TES buffer (pH 7.0). The ζ potential measurements were performed in 0.1 mM NaCl to improve conductivity and analyzed by the Hückel approximation model.^111 CD fluorescence emission was collected using a fluorescence spectrometer (Horiba PTI QM-400). The stepwise synthesis of TP-β-CDs was analyzed using FTIR (Thermo Nicolet 6700 FTIR).

TP-β-CD: carbon dots with β-cyclodextrin molecular baskets covalently bonded to chloroplast targeting peptide MASSMLSSATMVGGC (SEQ ID NO:5) (also: covalently bonded to carbon dots with β-cyclodextrin, site not given here)
ζ potential (10 mM TES buffer, pH 7.0): −36.4±3.4 mV | ζ potential, magnitude (higher in magnitude than): > 30 mV
